Laboratory results: paper PMC11059233

Target: HLA-B*35:01 expressed in C1R cells (C1R.B*35:01) (human | human (endogenous in C1R))

influenza B virus PB2_(66-70) peptide
IFN-γ+TNF+ CD8+ T cells (expanded with pool J) after restimulation with peptide-pulsed C1R.B*35:01; donors responding: 1 of 6 donors
